“Also recorded” adds a separate entry of the source.
How the values were obtained:
CaENO1 [1] = target: T1, CaENO1 (Candida albicans, UniProt P30575); type: binding, C. albicans; details: free form vs fixed form recombinant CaENO1
T1 construct: using full-length CaENO1 (1323 bp) as template; His (N); made in house; host or cells: E. coli BL21
Method: (A) Purified CaS1 scFv was used to recognize recombinant CaENO1 protein. The CaS1 scFv were used as primary antibody with series dilution. The goat anti-chicken light chain IgG was used as secondary antibody. The HRP conjugated donkey anti-goat IgG was used to decet. (B) OD value was calculated into percentage. […] The goat anti-chicken light chain IgG was used as secondary antibody. The HRP conjugated donkey anti-goat IgG was used to detect. (D) We calculated OD value into percentage.

[2] = target: T2, ENO1 protein expressed in cell lysates of C. albicans (Candida albicans, UniProt P30575); test: Western blot on total cell lysate of C. albicans; type: binding
T2 construct: endogenous in cells; host or cells: C. albicans SC 5314 and clinical isolates CA6-17, CA7-26, CA7-3, CA10-50, CA7-30, CA10-65
T2 sequence (P30575 whole entry): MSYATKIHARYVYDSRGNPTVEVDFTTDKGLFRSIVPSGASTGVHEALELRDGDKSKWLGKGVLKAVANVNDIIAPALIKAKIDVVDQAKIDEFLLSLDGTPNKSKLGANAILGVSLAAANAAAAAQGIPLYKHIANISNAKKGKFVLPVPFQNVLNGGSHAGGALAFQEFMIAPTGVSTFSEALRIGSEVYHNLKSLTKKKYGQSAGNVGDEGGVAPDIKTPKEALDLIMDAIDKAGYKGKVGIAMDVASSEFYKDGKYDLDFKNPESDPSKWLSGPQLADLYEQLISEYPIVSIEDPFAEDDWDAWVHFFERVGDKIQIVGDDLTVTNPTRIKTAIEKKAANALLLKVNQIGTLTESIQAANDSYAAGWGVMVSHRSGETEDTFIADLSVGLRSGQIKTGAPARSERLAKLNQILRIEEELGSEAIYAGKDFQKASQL
Text: (A) The total cell lysates of 5 Candida spp. were visualized on SDS-PAGE (left). After transferred onto the NC membranes, they were probed with purified anti-CaENO1 from 7th immunized chicken (1:3,000) (middle), or with CaS1 scFv (right) as described in material and methods. Lanes 1-6 in (A) contained the total cell lysates of C. albicans, C. krusei, C. tropicalis, C. parapsilosis and C. glabrate and purified recombinant CaENO1, respectively. […] (C) Total cell lysate from FLU^R and FLU^s and C. tropicalis (lanes 1-5 represent CT6-29, CT11-52, CT6-50, CT12-54, BCRC20520, respectively) by SDS-PAGE (left) and probed with CaS1 scFv by Western blot (right). (D) The purified ENO1 proteins of C. albicans, S. pneumonia, S. aureus, mouse and human were visualized on SDS-PAGE (left). After transferred onto the NC membranes, they were probed with purified CaS1 scFv (right) as described. Lane M contained protein markers. […]
This CaS1 scFv was evaluated for its binding activity to different species of Candida. Five common strains of Candida were obtained, total lysate of five species Candida were analyzed on SDS-PAGE (FIG. 6A left) and subsequent Western blot.

CaENO1 [3] = target: T1, CaENO1; test: Western blot on purified ENO1 protein of C. albicans; type: binding
Text: (A) The total cell lysates of 5 Candida spp. were visualized on SDS-PAGE (left). After transferred onto the NC membranes, they were probed with purified anti-CaENO1 from 7th immunized chicken (1:3,000) (middle), or with CaS1 scFv (right) as described in material and methods. Lanes 1-6 in (A) contained the total cell lysates of C. albicans, C. krusei, C. tropicalis, C. parapsilosis and C. glabrate and purified recombinant CaENO1, respectively. […] (C) Total cell lysate from FLU^R and FLU^s and C. tropicalis (lanes 1-5 represent CT6-29, CT11-52, CT6-50, CT12-54, BCRC20520, respectively) by SDS-PAGE (left) and probed with CaS1 scFv by Western blot (right). (D) The purified ENO1 proteins of C. albicans, S. pneumonia, S. aureus, mouse and human were visualized on SDS-PAGE (left). After transferred onto the NC membranes, they were probed with purified CaS1 scFv (right) as described. Lane M contained protein markers.
Briefly, C. albicans alpha-enolase genes were constructed in pQE30 plasmids to form pQE30-CaENO1 vector, and then the resulting vectors were transformed with E. coli BL21 cells. The bacterial culture was grown in 10 ml LB medium containing ampicillin ([…]) at 37° C. overnight, diluted 10-fold in the same LB medium and further grown until the OD600 reached between 0.6 and 1.0. […]

[4] = target: T3, alpha-enolase on the surface of C. albicans (Candida albicans, UniProt P30575); test: Immunofluorescence staining of C. albicans; type: cell-based
T3 construct: endogenous in cells; host or cells: C. albicans SC 5314 and clinical isolates CA6-17, CA7-26, CA7-3, CA10-50, CA7-30, CA10-65
T3 sequence (P30575 whole entry): as above
Text: Anti-CaENO1 antibodies were used to detect alpha-enolase protein on C. albicans cell surface ENO1. (1) Detected with anti-CaENO1 IgY and developed by FITC conjugation rabbit anti-chicken antibodies. (2) Detected with scFv CaS1 and developed by goat anti-chicken light chain antibodies and FITC rabbit anti-goat antibodies. (3) An irrelevant scFv was used on negative control.
Anti-CaENO1 IgY, scFv CaS1 and control scFv were used in immunofluorescence assay for identification of CaS1 antibody to alpha-enolase on cell surface of C. albicans.

T1 sequence (P30575 whole entry): as above

B1: CaS1 scFv: anti-CaENO1 scFv monoclonal antibody from chicken phage library; light chain SEQ ID NO:11, heavy chain SEQ ID NO:12 (antibody, V domains shown)
VH: TVTLDESGGGLQTPRGALSLVCKASGFTFIDYGMQWVRQAPGKGLEWVAGIGSSGSSTNYGAAVKGRATISRDDGQSTVRLQLNNLRAEDTGTYYCAKSAGGYCVNGAGCNGGSIDAWGHGTEVIVSS
VL: ALTQPSSVSANLGGTVKITCSGGSGSYGWYQQKSPGSAPVTVIYSNNQRPSNIPSRFSGSPSGSTGTLTITGVQADDEAVYFCGSRDSSYVGVFGAGTTLTVL
modifications: scFv linker; amino acid sequence comprised in a heavy chain of an anti-CaENO1 scFv monoclonal antibody (CaS1); amino acid sequence comprised in a light chain of an anti-CaENO1 scFv monoclonal antibody (CaS1)
CaENO1 [1]
  KD by competitive ELISA: 4.45 µg/mL
CaENO1 [1]; read-out: KD by competitive ELISA
  Kd: 89 nM
[2]
  Binding to fluconazole resistance and susceptible C. albicans from clinic (Western blot): binds; also recorded: can bind
[2]; C. albicans SC 5314 lysate
  Binding to ENO1 in total cell lysate of C. albicans (Western blot): specifically recognized; also recorded: reacted
CaENO1 [3]
  Binding to purified CaENO1 (Western blot): bind and recognizes
[4]
  Binding to alpha-enolase on the surface of C. albicans (immunofluorescence): bind
